Laboratory results published in patent US20020076693A1, “Novel cell surface receptor for HIV retroviruses, therapeutic and diagnostic uses” (priority 1997, published 2002).

Test system: HIV-1 Bal
Experiment: Infection of human monocyte-derived macrophages by HIV-1 (p24)
Assay type: cell-based
Settings: HIV-1 BaL (TASP also Ada); p24 in supernatant
Description: Macrophages are infected with BaL or Ada HIV-1 viruses, in the presence of 2 μM, 1 μM or 0.1 μM of 5[Kψ (CH2N)PR]-TASP. Cells are preincubated during 30 min at 4° C. in the presence of 5[Kψ (CH2N)PR]-TASP before adding the virus. Every 3 days interval, the whole culture supernatant is collected and is replaced by RPMI 1640 culture medium supplemented with 20% fetal calf serum (FCS), 1% antibiotics, 1% glutamine, in addition to 5[Kψ (CH2N)PR]-TASP that is kept present in the culture medium until day 14 after in vitro infection. Virus production is quantitated by titration of p24 protein in the culture supernatant at different times (days) after in vitro infection. Each value represented in the graphs represents the mean of two test samples.
Macrophages are infected by the BaL VIH-1 virus in the presence of 100 μg/ml of anti-P95, anti-P40 and anti-P30 antibody. Cells are preincubated during 30 min at 4° C. in the presence of each kind of antibody before adding the virus. The antibodies are kept present in the culture medium during the whole infection period of time. The experimental conditions are identical to those detailed in 4 +L4. The results are representative of two independent experiments.
Cells are preincubated during 30 min at 4° C. in the presence of the different molecules either alone or in association before adding the virus. Every three days period, the whole culture supernatant is collected and is replaced by RPMI 1640 culture medium supplemented with 20% fetal calf serum (FCS), 1% antibiotics, 1% glutamine, in addition to each tested molecule. Virus production is quantitated by titration of p24 protein in the culture supernatant at different times (days) after in vitro infection. Every value reprented in the graphs represents the mean of two test samples.

Molecule	effect on infection of human macrophages by HIV-1
MIP-1α: β chemokine (protein, UniProt P10147 24-92, looked up) C-C motif chemokine 3: SLAADTPTACCFSYTSRQIPQNFIADYFETSSQCSKPGVIFLTKRSRQVCADPSEEWVQKYVSDLELSA	weaker inhibitory effect
Rantes: β chemokine, natural ligand of CCR5 (protein, UniProt P13501 24-91, looked up) C-C motif chemokine 5: SPYSSDTTPCCFAYIARPLPRAHIKEYFYTSGKCSNPAVVFVTRKNRQVCANPEKKWVREYINSLEMS	inhibit
MIP-1β: β chemokine (protein, UniProt P13236 24-92, looked up) C-C motif chemokine 4: APMGSDPPTACCFSYTARKLPRNFVVDYYETSSLCSQPAVVFQTKRSKQVCADPSESWVQEYVYDLELN	inhibit
